Measured values taken from US20260146097A1.

T1: human IL2Rbeta-Avi protein (R&D Systems) (human) (UniProt P14784)
T1 sequence (looked up): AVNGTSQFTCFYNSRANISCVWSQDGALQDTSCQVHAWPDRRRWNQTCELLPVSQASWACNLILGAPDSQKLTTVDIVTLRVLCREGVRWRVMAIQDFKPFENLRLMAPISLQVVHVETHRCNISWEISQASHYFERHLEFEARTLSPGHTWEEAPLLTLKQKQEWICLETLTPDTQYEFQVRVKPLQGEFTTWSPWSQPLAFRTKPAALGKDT

B1: Wild-type anti-IL2Rbeta VH in the multi-specific format (anti-LAG3 and a single anti-IL2Rgamma/anti-IL2Rbeta unit) (protein, part only; not given: rest of multi-specific format, part only)
VH: EVQLVQSGAEVKKPGACVKISCKVSGYTFTDYYMHWVQRAPGKGLEWIGLVDPEDGETIYAEKFQGRVTITADTSTDTAYMELCSLRSEDTAVYYCATDFVKLDFSLSFQHWGQGTLVTVSS
B2: Anti-IL2Rbeta VH modification E53S in the multi-specific format (protein, part only; not given: Rest of multi-specific format, not shown: another chain or arm of the molecule; a dimerising Fc or GST; large carriers; small tags and cut ends)
VH: EVQLVQSGAEVKKPGACVKISCKVSGYTFTDYYMHWVQRAPGKGLEWIGLVDPSDGETIYAEKFQGRVTITADTSTDTAYMELCSLRSEDTAVYYCATDFVKLDFSLSFQHWGQGTLVTVSS
B3: Anti-IL2Rbeta VH modification Y32F in the multi-specific format (protein, part only; not given: Rest of multi-specific format, not shown: another chain or arm of the molecule; a dimerising Fc or GST; large carriers; small tags and cut ends)
VH: EVQLVQSGAEVKKPGACVKISCKVSGYTFTDFYMHWVQRAPGKGLEWIGLVDPEDGETIYAEKFQGRVTITADTSTDTAYMELCSLRSEDTAVYYCATDFVKLDFSLSFQHWGQGTLVTVSS
B4: Anti-IL2Rbeta VH modification D31Y in the multi-specific format (protein, part only; not given: Rest of multi-specific format, not shown: another chain or arm of the molecule; a dimerising Fc or GST; small tags and cut ends)
VH: EVQLVQSGAEVKKPGACVKISCKVSGYTFTYYYMHWVQRAPGKGLEWIGLVDPEDGETIYAEKFQGRVTITADTSTDTAYMELCSLRSEDTAVYYCATDFVKLDFSLSFQHWGQGTLVTVSS
B5: Anti-IL2Rbeta VH modification D31S in the multi-specific format (protein, part only; not given: Rest of multi-specific format, not shown: another chain or arm of the molecule; a dimerising Fc or GST; small tags and cut ends)
VH: EVQLVQSGAEVKKPGACVKISCKVSGYTFTSYYMHWVQRAPGKGLEWIGLVDPEDGETIYAEKFQGRVTITADTSTDTAYMELCSLRSEDTAVYYCATDFVKLDFSLSFQHWGQGTLVTVSS
B6: Anti-IL2Rbeta VH modification Y33F in the multi-specific format (protein, part only; not given: Rest of multi-specific format, not shown: another chain or arm of the molecule; a dimerising Fc or GST; large carriers; small tags and cut ends)
VH: EVQLVQSGAEVKKPGACVKISCKVSGYTFTDYFMHWVQRAPGKGLEWIGLVDPEDGETIYAEKFQGRVTITADTSTDTAYMELCSLRSEDTAVYYCATDFVKLDFSLSFQHWGQGTLVTVSS
B7: Anti-IL2Rbeta VH modification D31K in the multi-specific format (protein, part only; not given: Rest of multi-specific format, not shown: another chain or arm of the molecule; a dimerising Fc or GST; small tags and cut ends)
VH: EVQLVQSGAEVKKPGACVKISCKVSGYTFTKYYMHWVQRAPGKGLEWIGLVDPEDGETIYAEKFQGRVTITADTSTDTAYMELCSLRSEDTAVYYCATDFVKLDFSLSFQHWGQGTLVTVSS
B8: Anti-IL2Rbeta VH modification D31R in the multi-specific format (protein, part only; not given: Rest of multi-specific format, not shown: another chain or arm of the molecule; a dimerising Fc or GST; small tags and cut ends)
VH: EVQLVQSGAEVKKPGACVKISCKVSGYTFTRYYMHWVQRAPGKGLEWIGLVDPEDGETIYAEKFQGRVTITADTSTDTAYMELCSLRSEDTAVYYCATDFVKLDFSLSFQHWGQGTLVTVSS
B9: Anti-IL2Rbeta VH modification E53I in the multi-specific format (protein, part only; not given: Rest of multi-specific format, not shown: another chain or arm of the molecule; a dimerising Fc or GST; large carriers; small tags and cut ends)
VH: EVQLVQSGAEVKKPGACVKISCKVSGYTFTDYYMHWVQRAPGKGLEWIGLVDPIDGETIYAEKFQGRVTITADTSTDTAYMELCSLRSEDTAVYYCATDFVKLDFSLSFQHWGQGTLVTVSS

Legend:
[1] = molecular target: IL2Rs (IL2Rgamma/IL2Rbeta) on preactivated human PBMCs / CD8+ T cells (human) (UniProt P14784); experiment: cell-based or functional assay
[2] = molecular target: T1, human IL2Rbeta-Avi protein (R&D Systems) (human); experiment: ELISA: variant captured by anti-human IgG-Fc, human IL2Rbeta-Avi, streptavidin-HRP

pSTAT5 EMAX (Mean Fluorescence Intensity) (Mean Fluorescence Intensity) [1]	EC50 [2]	Molecule
25000		IgG Control (antibody)
	0.65 µg/mL	B1
	0.3 µg/mL	B2
	0.24 µg/mL	B3
	0.24 µg/mL	B4
	0.21 µg/mL	B5
	0.24 µg/mL	B6
	0.4 µg/mL	B7
	0.13 µg/mL	B8
	0.3 µg/mL	B9
